According to publication PMC8943035:

Target: muscle RAS oncogene homolog (MRAS) fused to mCherry, expressed from pmCherry-MRAS (UniProt O14807)
Assay: FRET or BRET; FRET between GFP (donor, excited at 488 nm) and mCherry (acceptor, emission 610 nm) fusion proteins, imaged in MCF-7 cells

FRET efficiency: 11%
Substance: G-protein gamma subunit 2 (GNG2) fused to EGFP, expressed from pEGFP-GNG2 (from UniProt P59768 1-71) (natural protein)
